Here are results for 22 molecules from patent US20020045192A1 (ST JUDE CHILDREN S RESEARCH HOSPITAL, published 2002).

B1: 41-55 (human Arf peptide) (peptide)
peptide: Ac-AAVALVLMLLRSQRL-NH2
notes: also called human p14Arf library peptide, residues 41-55
B2: 96-110 (human Arf peptide) (peptide)
peptide: Ac-RARRCPGGLPGHAGG-NH2
notes: also called human p14Arf library peptide, residues 96-110
B3: 91-105 (human Arf peptide) (peptide)
peptide: Ac-HSHPTRARRCPGGLP-NH2
notes: also called human p14Arf library peptide, residues 91-105
B4: 31-45 (human Arf peptide) (peptide)
peptide: Ac-TGEWAAPGAPAAVAL-NH2
notes: also called human p14Arf library peptide, residues 31-45
B5: 26-40 (human Arf peptide) (peptide)
peptide: Ac-HIPRLTGEWAAPGAP-NH2
notes: also called human p14Arf library peptide, residues 26-40
B6: human p14Arf library peptide, residues 1-15 (peptide)
peptide: Ac-MVRRFLVTLRIRRAC-NH2
notes: also called first peptide of the human library
B7: 106-120 (human Arf peptide) (peptide)
peptide: Ac-GHAGGAAPGRGAAGR-NH2
notes: also called human p14Arf library peptide, residues 106-120
B8: 21-35 (human Arf peptide) (peptide)
peptide: Ac-RVFVVHIPRLTGEWA-NH2
notes: also called human p14Arf library peptide, residues 21-35
B9: 46-60 (human Arf peptide) (peptide)
peptide: Ac-VLMLLRSQRLGQQPL-NH2
notes: also called human p14Arf library peptide, residues 46-60
B10: 81-95 (human Arf peptide) (peptide)
peptide: Ac-RRGAQLRRPRHSHPT-NH2
notes: also called human p14Arf library peptide, residues 81-95
B11: 101-115 (human Arf peptide) (peptide)
peptide: Ac-PGGLPGHAGGAAPGR-NH2
notes: also called human p14Arf library peptide, residues 101-115
B12: 76-90 (human Arf peptide) (peptide)
peptide: Ac-AAAAPRRGAQLRRPR-NH2
notes: also called human p14Arf library peptide, residues 76-90
B13: 51-65 (human Arf peptide) (peptide)
peptide: Ac-RSQRLGQQPLPRRPG-NH2
notes: also called human p14Arf library peptide, residues 51-65
B14: 71-85 (human Arf peptide) (peptide)
peptide: Ac-RPSGGAAAAPRRGAQ-NH2
notes: also called human p14Arf library peptide, residues 71-85
B15: 111-125 (human Arf peptide) (peptide)
peptide: Ac-AAPGRGAAGRARCLG-NH2
notes: also called human p14Arf library peptide, residues 111-125
B16: 61-75 (human Arf peptide) (peptide)
peptide: Ac-PRRPGHDDGQRPSGG-NH2
notes: also called human p14Arf library peptide, residues 61-75
B17: 116-130 (human Arf peptide) (peptide)
peptide: Ac-GAAGRARCLGPSARG-NH2
notes: also called human p14Arf library peptide, residues 116-130
B18: 66-80 (human Arf peptide) (peptide)
peptide: Ac-HDDGQRPSGGAAAAP-NH2
notes: also called human p14Arf library peptide, residues 66-80
B19: human p14Arf library peptide, residues 6-20 (peptide)
peptide: Ac-LVTLRIRRACGPPRV-NH2
notes: also called second peptide of the human library
B20: 56-70 (human Arf peptide) (peptide)
peptide: Ac-GQQPLPRRPGHDDGQ-NH2
notes: also called human p14Arf library peptide, residues 56-70
B21: human p14Arf library peptide, residues 11-25 (peptide)
peptide: Ac-IRRACGPPRVRVFVV-NH2
notes: also called third peptide of the human library

The target of this assay is T1, His-tagged Hdm2 210-304 (human, UniProt Q00987 210-304).
T1 construct: Captured on the C-1 chip by anti-His antibody for the Arf peptide library SPR; Tag placed first here
T1 sequence (Q00987 210-304): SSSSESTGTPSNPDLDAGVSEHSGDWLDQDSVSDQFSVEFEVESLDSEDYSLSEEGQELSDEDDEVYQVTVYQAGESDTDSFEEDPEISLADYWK
Nature of the assay: SPR, His-tagged Hdm2 210-304 captured by anti-His antibody, peptide injected 10 min, signal minus reference cell [b]. The protocol:
Reactive sites remaining on the surface were blocked by reaction with ethanolamine. The His-tagged ligand was attached to the antibody by injecting a 5-10 μg/ml solution of the ligand in 10 mM HEPES, 150 mM NaCl, pH 7.4 (HBS-N buffer, Biacore) at a flow rate of 10 μL/min through the flow cell. A reference cell was prepared similarly except that no His-tagged ligand was added. Binding was measured by flowing the non-His-tagged analyte through the reference and ligand-containing flow cells in sequence. Prior to injection of ligands, the chip surfaces were equilibrated in HBS-N buffer. Changes in the SPR response due to solvent differences and the injection process were monitored by injection of HBS-N buffer alone. Regeneration of the chip surface to remove bound analyte and ligand was accomplished by two 100 μL injections of 10 mM glycine, pH 2.0 through both flow cells. Data reported is the difference in SPR signal between the flow cell containing analyte and the reference cell. Duplicate injections were made and the SPR response values reported are the average of these two injections.
Two libraries of peptides 15 amino acids in length were synthesized based on the sequence of exon 1β of mouse p19^Arf and the entire sequence of human p14^Arf. The sequence for the first peptide in each library corresponded to the first 15 amino acids of the protein sequences. […] This approach yielded two libraries of overlapping peptides spanning mouse p19^Arf residues 1-64 and human p14^Arf residues 1-132. The ability of these peptides to bind Hdm2 fragments was determined using the surface plasmon resonance (SPR) technique with a Biacore 3000 instrument. […] Library peptides were allowed to flow over the Hdm2 surface, or over a control surface lacking an Hdm2 fragment.
With B1, the binding result is recorded as “no binding”. Take B2: the binding result is “no binding”. The result for B3 reads “no binding”; that for Ac-LRRPRHSHPTRARRC-NH2 [human p14Arf library peptide, residues 86-100 (contains the NoLS RRPR)], “binds”; that for B4, “no binding”. The value for B5 was “no binding”; that for B6 was “binds”; that for B7 was “no binding”. As to B8, the binding result is given as “no binding”. As to B9, the binding result is “no binding”. Take B10: the binding result is recorded as “no binding”. The value for B11 was “no binding”; that for B12 was “no binding”; that for B13 was “no binding”. As to B14, the binding result was “no binding”. For the molecule B15, the binding result is “no binding”. The value for B16 was “no binding”; that for B17 was “no binding”; that for B18 was “no binding”.

Consider B19, for which the binding result is on record as “binds”. The value for B20 was “no binding”.

As to B21, the binding result is “binds”.
